# *1 amine or outer side, *2 acyl side, *3 side chain or, on linkers, in order; H or OH if unused. Bridges are numbered along the chain shown (N, C = ends). [ ]: non-standard residue; d: D form. The star is where a group is joined. C20 diacid = O=C(O)CCCCCCCCCCCCCCCCCCC(=O)*; γGlu = O=C(O)[C@H](CCC(=O)[*:2])N[*:1]; Hyp = O=C(O)[C@@H]1C[C@@H](O)CN1; NMeI = CC[C@H](C)[C@H](NC)C(=O)O; Aad = N[C@@H](CCCC(=O)O)C(=O)O; Sar = CNCC(=O)O
# T1: human amylin receptor 3 (hAMYR3), hCTR2 co-expressed with human receptor activity modifying protein 3 (hRAMP3) (human, UniProt P30988 25-474; O60896 24-148)
# T1 sequence (looked up) 1: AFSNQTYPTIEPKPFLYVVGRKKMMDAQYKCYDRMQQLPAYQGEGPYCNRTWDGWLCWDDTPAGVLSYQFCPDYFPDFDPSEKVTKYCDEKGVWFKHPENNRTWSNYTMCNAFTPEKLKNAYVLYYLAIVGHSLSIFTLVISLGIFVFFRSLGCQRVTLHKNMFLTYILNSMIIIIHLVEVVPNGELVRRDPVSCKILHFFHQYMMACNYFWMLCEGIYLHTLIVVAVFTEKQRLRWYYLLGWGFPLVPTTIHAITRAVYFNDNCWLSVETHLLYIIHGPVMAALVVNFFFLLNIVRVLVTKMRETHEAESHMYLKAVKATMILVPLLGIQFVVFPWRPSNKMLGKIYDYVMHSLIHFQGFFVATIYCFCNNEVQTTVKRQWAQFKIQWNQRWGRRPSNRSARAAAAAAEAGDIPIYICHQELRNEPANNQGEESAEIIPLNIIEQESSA
# T1 sequence (looked up) 2: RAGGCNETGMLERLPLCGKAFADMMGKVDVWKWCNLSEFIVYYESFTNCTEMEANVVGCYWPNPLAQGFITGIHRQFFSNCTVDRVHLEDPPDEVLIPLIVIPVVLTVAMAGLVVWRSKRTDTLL
# Biological target: T1, human amylin receptor 3 (hAMYR3), hCTR2 …
# Experiment: cell-based or functional assay
row,Binder,hAMYR3 EC50 (nM); cAMP induction
1,{C20 diacid}-[γGlu]RCGTATCATERLAHFLQRF[Sar]A[NMeI]LSSTEVGSNT[Hyp]-NH2 (disulfide 3-8; SMILES CC[C@H](C)[C@@H](C(=O)N[C@@H](CC(C)C)C(=O)N[C@@H](CO)C(=O)N[C@@H](CO)C(=O)N[C@H](C(=O)N[C@@H](CCC(=O)O)C(=O)N[C@H](C(=O)NCC(=O)N[C@@H](CO)C(=O)N[C@@H](CC(N)=O)C(=O)N[C@H](C(=O)N1C[C@H](O)C[C@H]1C(N)=O)[C@@H](C)O)C(C)C)[C@@H](C)O)N(C)C(=O)[C@H](C)NC(=O)CN(C)C(=O)[C@H](Cc1ccccc1)NC(=O)[C@H](CCCNC(=N)N)NC(=O)[C@H](CCC(N)=O)NC(=O)[C@H](CC(C)C)NC(=O)[C@H](Cc1ccccc1)NC(=O)[C@H](Cc1c[nH]cn1)NC(=O)[C@H](C)NC(=O)[C@H](CC(C)C)NC(=O)[C@H](CCCNC(=N)N)NC(=O)[C@H](CCC(=O)O)NC(=O)[C@@H](NC(=O)[C@H](C)NC(=O)[C@@H]1CSSC[C@H](NC(=O)[C@H](CCCNC(=N)N)NC(=O)CC[C@H](NC(=O)CCCCCCCCCCCCCCCCCCC(=O)O)C(=O)O)C(=O)NCC(=O)N[C@@H]([C@@H](C)O)C(=O)N[C@@H](C)C(=O)N[C@@H]([C@@H](C)O)C(=O)N1)[C@@H](C)O) [[19CD]-isoGlu-R-C( )-GTAT-C( )-ATERLAHFLQRF-Gly(Me)-A-Ile(Me)-LSSTEVGSNT-Hyp-NH2 (Compd. 77)],0.42 nM
2,{C20 diacid}-[γGlu]RCGTATCATERLAHFLERSSF[Sar]A[NMeI]LSSTEVGSNT[Hyp]-NH2 (disulfide 3-8) [[19CD]-isoGlu-R-C( )-GTAT-C( )-ATERLAHFLERSSF-Gly(Me)-A-Ile(Me)-LSSTEVGSNT-Hyp-NH2 (Compd. 8)],0.36 nM
3,{C20 diacid}-[γGlu]RCGTATCATERLAHFLQRSSF[Sar]A[NMeI]LSSTEVGSNTP-NH2 (disulfide 3-8; SMILES CC[C@H](C)[C@@H](C(=O)N[C@@H](CC(C)C)C(=O)N[C@@H](CO)C(=O)N[C@@H](CO)C(=O)N[C@H](C(=O)N[C@@H](CCC(=O)O)C(=O)N[C@H](C(=O)NCC(=O)N[C@@H](CO)C(=O)N[C@@H](CC(N)=O)C(=O)N[C@H](C(=O)N1CCC[C@H]1C(N)=O)[C@@H](C)O)C(C)C)[C@@H](C)O)N(C)C(=O)[C@H](C)NC(=O)CN(C)C(=O)[C@H](Cc1ccccc1)NC(=O)[C@H](CO)NC(=O)[C@H](CO)NC(=O)[C@H](CCCNC(=N)N)NC(=O)[C@H](CCC(N)=O)NC(=O)[C@H](CC(C)C)NC(=O)[C@H](Cc1ccccc1)NC(=O)[C@H](Cc1c[nH]cn1)NC(=O)[C@H](C)NC(=O)[C@H](CC(C)C)NC(=O)[C@H](CCCNC(=N)N)NC(=O)[C@H](CCC(=O)O)NC(=O)[C@@H](NC(=O)[C@H](C)NC(=O)[C@@H]1CSSC[C@H](NC(=O)[C@H](CCCNC(=N)N)NC(=O)CC[C@H](NC(=O)CCCCCCCCCCCCCCCCCCC(=O)O)C(=O)O)C(=O)NCC(=O)N[C@@H]([C@@H](C)O)C(=O)N[C@@H](C)C(=O)N[C@@H]([C@@H](C)O)C(=O)N1)[C@@H](C)O) [[19CD]-isoGlu-R-C( )-GTAT-C( )-ATERLAHFLQRSSF-Gly(Me)-A-Ile(Me)-LSSTEVGSNTP-NH2 (Compd. 78)],0.24 nM

# Next, values leading:
row,hAMYR3 EC50 (nM); cAMP induction,Binder
1,0.23 nM,{C20 diacid-γGlu}-RCNTATCATQRLAHFLQRF[Sar]A[NMeI]LSSTEVGSGT[Hyp]-NH2 (disulfide 2-7; SMILES CC[C@H](C)[C@@H](C(=O)N[C@@H](CC(C)C)C(=O)N[C@@H](CO)C(=O)N[C@@H](CO)C(=O)N[C@H](C(=O)N[C@@H](CCC(=O)O)C(=O)N[C@H](C(=O)NCC(=O)N[C@@H](CO)C(=O)NCC(=O)N[C@H](C(=O)N1C[C@H](O)C[C@H]1C(N)=O)[C@@H](C)O)C(C)C)[C@@H](C)O)N(C)C(=O)[C@H](C)NC(=O)CN(C)C(=O)[C@H](Cc1ccccc1)NC(=O)[C@H](CCCNC(=N)N)NC(=O)[C@H](CCC(N)=O)NC(=O)[C@H](CC(C)C)NC(=O)[C@H](Cc1ccccc1)NC(=O)[C@H](Cc1c[nH]cn1)NC(=O)[C@H](C)NC(=O)[C@H](CC(C)C)NC(=O)[C@H](CCCNC(=N)N)NC(=O)[C@H](CCC(N)=O)NC(=O)[C@@H](NC(=O)[C@H](C)NC(=O)[C@@H]1CSSC[C@H](NC(=O)[C@H](CCCNC(=N)N)NC(=O)CC[C@H](NC(=O)CCCCCCCCCCCCCCCCCCC(=O)O)C(=O)O)C(=O)N[C@@H](CC(N)=O)C(=O)N[C@@H]([C@@H](C)O)C(=O)N[C@@H](C)C(=O)N[C@@H]([C@@H](C)O)C(=O)N1)[C@@H](C)O) [[19CD]-isoGlu-R-C( )-NTAT-C( )-ATQRLAHFLQRF-Gly(Me)-A-Ile(Me)-LSSTEVGSGT-Hyp-NH2 (Compd. 79)]
2,0.49 nM,{C20 diacid}-[γGlu]RCPTATCATERLAHFLQRSSF[Sar]A[NMeI]LSSTEVGS[Aad]T[Hyp]-NH2 (disulfide 3-8; SMILES CC[C@H](C)[C@@H](C(=O)N[C@@H](CC(C)C)C(=O)N[C@@H](CO)C(=O)N[C@@H](CO)C(=O)N[C@H](C(=O)N[C@@H](CCC(=O)O)C(=O)N[C@H](C(=O)NCC(=O)N[C@@H](CO)C(=O)N[C@@H](CCCC(=O)O)C(=O)N[C@H](C(=O)N1C[C@H](O)C[C@H]1C(N)=O)[C@@H](C)O)C(C)C)[C@@H](C)O)N(C)C(=O)[C@H](C)NC(=O)CN(C)C(=O)[C@H](Cc1ccccc1)NC(=O)[C@H](CO)NC(=O)[C@H](CO)NC(=O)[C@H](CCCNC(=N)N)NC(=O)[C@H](CCC(N)=O)NC(=O)[C@H](CC(C)C)NC(=O)[C@H](Cc1ccccc1)NC(=O)[C@H](Cc1c[nH]cn1)NC(=O)[C@H](C)NC(=O)[C@H](CC(C)C)NC(=O)[C@H](CCCNC(=N)N)NC(=O)[C@H](CCC(=O)O)NC(=O)[C@@H](NC(=O)[C@H](C)NC(=O)[C@@H]1CSSC[C@H](NC(=O)[C@H](CCCNC(=N)N)NC(=O)CC[C@H](NC(=O)CCCCCCCCCCCCCCCCCCC(=O)O)C(=O)O)C(=O)N2CCC[C@H]2C(=O)N[C@@H]([C@@H](C)O)C(=O)N[C@@H](C)C(=O)N[C@@H]([C@@H](C)O)C(=O)N1)[C@@H](C)O) [[19CD]-isoGlu-R-C( )-PTAT-C( )-ATERLAHFLQRSSF-Gly(Me)-A-Ile(Me)-LSSTEVGS-Aad-T-Hyp-NH2 (Compd. 76)]
3,0.26 nM,{C20 diacid}-[γGlu]RCNTATCATQRLAHFLQRSSF[Sar]A[NMeI]LSSTEVGS[Aad]T[Hyp]-NH2 (disulfide 3-8; SMILES CC[C@H](C)[C@@H](C(=O)N[C@@H](CC(C)C)C(=O)N[C@@H](CO)C(=O)N[C@@H](CO)C(=O)N[C@H](C(=O)N[C@@H](CCC(=O)O)C(=O)N[C@H](C(=O)NCC(=O)N[C@@H](CO)C(=O)N[C@@H](CCCC(=O)O)C(=O)N[C@H](C(=O)N1C[C@H](O)C[C@H]1C(N)=O)[C@@H](C)O)C(C)C)[C@@H](C)O)N(C)C(=O)[C@H](C)NC(=O)CN(C)C(=O)[C@H](Cc1ccccc1)NC(=O)[C@H](CO)NC(=O)[C@H](CO)NC(=O)[C@H](CCCNC(=N)N)NC(=O)[C@H](CCC(N)=O)NC(=O)[C@H](CC(C)C)NC(=O)[C@H](Cc1ccccc1)NC(=O)[C@H](Cc1c[nH]cn1)NC(=O)[C@H](C)NC(=O)[C@H](CC(C)C)NC(=O)[C@H](CCCNC(=N)N)NC(=O)[C@H](CCC(N)=O)NC(=O)[C@@H](NC(=O)[C@H](C)NC(=O)[C@@H]1CSSC[C@H](NC(=O)[C@H](CCCNC(=N)N)NC(=O)CC[C@H](NC(=O)CCCCCCCCCCCCCCCCCCC(=O)O)C(=O)O)C(=O)N[C@@H](CC(N)=O)C(=O)N[C@@H]([C@@H](C)O)C(=O)N[C@@H](C)C(=O)N[C@@H]([C@@H](C)O)C(=O)N1)[C@@H](C)O) [[19CD]-isoGlu-R-C( )-NTAT-C( )-ATQRLAHFLQRSSF-Gly(Me)-A-Ile(Me)-LSSTEVGS-Aad-T-Hyp-NH2 (Compd. 75)]
4,0.39 nM,{C20 diacid}-[γGlu]RCPTATCATERLAHFLQRSSF[Sar]A[NMeI]LSSTEVGSTT[Hyp]-NH2 (disulfide 3-8; SMILES CC[C@H](C)[C@@H](C(=O)N[C@@H](CC(C)C)C(=O)N[C@@H](CO)C(=O)N[C@@H](CO)C(=O)N[C@H](C(=O)N[C@@H](CCC(=O)O)C(=O)N[C@H](C(=O)NCC(=O)N[C@@H](CO)C(=O)N[C@H](C(=O)N[C@H](C(=O)N1C[C@H](O)C[C@H]1C(N)=O)[C@@H](C)O)[C@@H](C)O)C(C)C)[C@@H](C)O)N(C)C(=O)[C@H](C)NC(=O)CN(C)C(=O)[C@H](Cc1ccccc1)NC(=O)[C@H](CO)NC(=O)[C@H](CO)NC(=O)[C@H](CCCNC(=N)N)NC(=O)[C@H](CCC(N)=O)NC(=O)[C@H](CC(C)C)NC(=O)[C@H](Cc1ccccc1)NC(=O)[C@H](Cc1c[nH]cn1)NC(=O)[C@H](C)NC(=O)[C@H](CC(C)C)NC(=O)[C@H](CCCNC(=N)N)NC(=O)[C@H](CCC(=O)O)NC(=O)[C@@H](NC(=O)[C@H](C)NC(=O)[C@@H]1CSSC[C@H](NC(=O)[C@H](CCCNC(=N)N)NC(=O)CC[C@H](NC(=O)CCCCCCCCCCCCCCCCCCC(=O)O)C(=O)O)C(=O)N2CCC[C@H]2C(=O)N[C@@H]([C@@H](C)O)C(=O)N[C@@H](C)C(=O)N[C@@H]([C@@H](C)O)C(=O)N1)[C@@H](C)O) [[19CD]-isoGlu-R-C( )-PTAT-C( )-ATERLAHFLQRSSF-Gly(Me)-A-Ile(Me)-LSSTEVGSTT-Hyp-NH2 (Compd. 74)]

# Reference: patent US20160272693A1 (ZEALAND PHARMA A S, published 2016)
